According to paper PMC5655542, “HpARI Protein Secreted by a Helminth Parasite Suppresses Interleukin-33” (Immunity, 2017):

Target: T1, H. polygyrus Alarmin Release Inhibitor (HpARI), recombinant mature 6-His and Myc-tagged protein (Heligmosomoides polygyrus)
T1 construct: HpARI, Heligmosomoides polygyrus; 251-aa protein including a 16-aa signal peptide; the mature protein (26 kDa, three CCP-like modules) was expressed; the CCP1/2 construct starts at amino acid 17; Codon-optimised synthetic gene cloned with AscI and NotI into pSecTAG2A; also called candidate D; not shown: myc, C-terminal, kept; His6, C-terminal, kept
Experiment: SPR; BIAcore T200; HpARI captured via its 6-His tag on a Ni2+-NTA chip to 400 RU; cytokine injected (mIL-33 6.2-167 nM, hIL-33 0.062-1.67 μM); 25°C; 10 mM NaH2PO4 pH 7.5, 150 mM NaCl, 50 μM EDTA, 0.05% surfactant P20; single kinetic titration, global 1:1 fit
Conditions: both partners purified

T1 sequence (A0A3P7XL18 63-297): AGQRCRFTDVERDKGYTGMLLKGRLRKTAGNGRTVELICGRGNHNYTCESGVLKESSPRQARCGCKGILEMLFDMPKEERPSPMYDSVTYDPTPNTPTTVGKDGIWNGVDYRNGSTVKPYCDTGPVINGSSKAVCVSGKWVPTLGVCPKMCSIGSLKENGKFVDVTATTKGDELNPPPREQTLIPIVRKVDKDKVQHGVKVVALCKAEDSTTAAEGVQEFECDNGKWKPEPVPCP

B1: recombinant murine IL-33, untreated (reduced, active form) (ligand)
chain: SIQGTSLLTQSPASLSTYNDQSVSFVLENGCYVINVDDSGKDQEQDQVLLRYYESPCPASQSGDGVDGKKLMVNMSPIKDTDIWLHANDKDYSVELQRGDVSPPEQAFFVLHKKSSDFVSFECKNLPGTYIGVKDNQLALVEEKDESCNNIMFKLSKI
modifications: reduced (free cysteines, no disulfides), active form; limits not given, taken as the usual commercial mature mouse IL-33 (Ser109-Ile266, UniProt chain 109-266)
B1 was tested, and the Kd was 560 ± 100 pM and the “stoichiometry N” value was 1.
